Experimental data: US20250313629A1 (Hoffmann-La Roche, published 2025)

T1: Lag3 expressed on cells (recombinant CHO cells expressing Lag3; Lag3+ NFAT Jurkat effector cells) (human, UniProt P18627 29-525)
T1 sequence: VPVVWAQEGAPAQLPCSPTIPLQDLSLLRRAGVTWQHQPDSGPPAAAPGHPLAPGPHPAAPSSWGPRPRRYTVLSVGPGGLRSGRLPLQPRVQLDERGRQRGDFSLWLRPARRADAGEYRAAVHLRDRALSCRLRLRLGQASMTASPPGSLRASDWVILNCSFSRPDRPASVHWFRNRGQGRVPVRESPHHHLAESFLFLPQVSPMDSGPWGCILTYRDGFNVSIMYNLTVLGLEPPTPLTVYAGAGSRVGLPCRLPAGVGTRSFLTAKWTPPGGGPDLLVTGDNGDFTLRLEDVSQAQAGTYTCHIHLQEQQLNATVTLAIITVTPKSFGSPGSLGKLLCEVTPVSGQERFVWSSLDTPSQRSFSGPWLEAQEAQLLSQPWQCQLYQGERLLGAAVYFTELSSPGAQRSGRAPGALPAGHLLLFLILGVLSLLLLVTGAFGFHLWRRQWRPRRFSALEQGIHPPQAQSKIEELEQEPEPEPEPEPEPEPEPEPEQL

T2: biotinylated-Lag3 (UniProt P18627 23-450, limits assumed, biotinylated (site not stated))
T2 construct: also called LAG-3 (A375 MHC-II ELISA)
T2 sequence (looked up): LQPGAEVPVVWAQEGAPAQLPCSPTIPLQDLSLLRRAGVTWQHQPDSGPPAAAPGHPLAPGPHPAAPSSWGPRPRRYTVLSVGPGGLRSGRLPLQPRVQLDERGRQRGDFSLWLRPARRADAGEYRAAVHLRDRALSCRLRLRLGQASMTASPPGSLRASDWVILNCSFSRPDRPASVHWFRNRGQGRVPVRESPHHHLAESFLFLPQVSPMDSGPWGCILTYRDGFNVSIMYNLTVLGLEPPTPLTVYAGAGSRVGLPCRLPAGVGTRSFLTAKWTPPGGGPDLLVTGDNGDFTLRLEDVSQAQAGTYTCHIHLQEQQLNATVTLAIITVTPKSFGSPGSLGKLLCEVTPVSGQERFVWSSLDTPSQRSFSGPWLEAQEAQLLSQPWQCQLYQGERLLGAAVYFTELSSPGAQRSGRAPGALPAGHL


Tests used:
[1] = molecular target: T3, cynomolgus Lag3 on cells (HEK293F cells transiently transfected with cyno-LAG-3); activated cynomolgus PBMC/T … (cynomolgus); assay: flow cytometry on CD3/CD28-activated cynomolgus PBMC, antibody at 10 ug/ml
T3 construct: whole, on cells
Procedure: Thus, cynomolgus peripheral blood mononuclear cells (PBMC) were prepared from fresh cynomolgus blood and were then activated by CD3/CD28 pre-treatment (1 μg/ml) for 2-3 days. […] After staining, cells were washed two times with PBS/2% FCS and analyzed on a FACS Fortessa (BD).

[2] = molecular target: T1, Lag3 expressed on cells (recombinant …); assay: cell-based or functional assay
[3] = molecular target: T2, biotinylated-Lag3; assay: competition cell ELISA: antibody pre-incubated with biotinylated Lag3, binding to MHC-II on A375 cells
Procedure: 25 μl/well of A375 cells (10000 cells/well) were seeded into tissue culture treated 384-well plates (Corning, 3701) and incubated at 37° C. overnight. […] After washing (1×90 μl in PBST) cells were fixed by addition of 30 μl/well glutaraldehyde to a final concentration of 0.05% (Sigma Cat.No: G5882), 10 min at room temperature. After washing (3×90 μl/well with PBST-buffer) 25 μl/well Poly-HRP40-Streptavidin (Fitzgerald, 65R-S104PHRPx) was added in a 1:2000 or 1:8000 dilution and incubated at RT for 1 h. After washing (3×90 μl/well with PBST-buffer) 25 μl/well TMB substrate (Roche, 11835033001) was added and incubated for 2 to 10 min. Measurement took place on a Tecan Safire 2 instrument at 370/492 nm.

percentage of Lag3 positive cells [1]	EC50 [nM] in Jurkat LAG3 + SED + Raji, 1st assay [2]	EC50 [nM] in Jurkat LAG3 + SED + Raji, 2nd assay [2]	EC50 [nM] in Jurkat LAG3 + SED + Raji, 3rd assay [2]	IC50 [3]	Binder
46.6%	1.1 nM	1 nM	–	–	aLAG3(0411) (antibody, V domains shown, also called aLAG3 (411)) VH: EVHLLESGGGLVQPGGSLRLSCAASGFIVDDYTMNWVRQAPGKGLEWVSVISWDGGATYYADSVKGRFTISRDDFKNTLYLQMNSLRAEDTAVYYCAKGLTDDTLYGSDYWGQGTLVTVSS VL: DIQMTQSPSSLSASVGDRVTITCRASQSIVSYLNWYQQKPGKAPKLLIYASSSLQSGVPSRFSGSGSGTDFTLTISSLQPEDFATYYCQQTYSTPLTFGGGTKVEIK
38.9%	3.1 nM	2.5 nM	3.5 nM	–	aLAG3(0416) (antibody, V domains shown, also called aLAG3 (416)) VH: EVQLVESGGGLVQPGGSLRLACAASGFTFSDYAMSWVRQAPGKGLEWVSGIDNSGYYTYYTDSVKGRFTISRDDVKNTLYLQMNSLRAEDTAVYLCTKTHSGLIVNDAFDIWGQGTMVTVSS VL: DIQLTQSPSSLSASVGDRVTITCRASQSISSYLNWYQQKPGKAPKLLIYDASSLESGVPSRFSGSGSGTDATLTISSLQPEDFATYYCQQSYSTPLTFGGGTKVEIK
43%	1.1 nM	1 nM	1.8 nM	–	aLAG3(0414) (antibody, V domains shown, also called aLAG3 (414)) VH: EVQLLESGGGLVQPGGSLRLSCAASGFIFDDYTMNWVRQAPGKGLEWVAVISWDGGGTYYTDSVKGRFTISRDDFKNTLYLQMNSLRAEDTAVYYCAKGLTDTTLYGSDYWGQGTLVTVSS VL: DIQMTQSPSSLSASVGDRVTITCRASQSISSYLNWYQQKPGKAPKLLIYAASTLQSGVPSRFSGSGSGTDFTLTISSLQPEDFATYYCQQTYSSPLTFGGGTKVEIK
35.3%	1 nM	–	–	–	aLAG3(0417) (antibody, V domains shown, also called aLAG3 (417)) VH: EVQLVESGGGLVQPGGSLRLACAASGFTFSDYAMSWVRQAPGKGLEWVSGIDNSGYYTYYTDSVKGRFTISRDDVKNTLYLQMNSLRAEDTAVYLCTKTHSGLIVNDAFDIWGQGTMVTVSS VL: not shown
22.1%	–	8.6 nM	–	–	MDX25F7 (25F7) (antibody, V domains shown, also called Medarex 25F7) VH: QVQLQQWGAGLLKPSETLSLTCAVYGGSFSDYYWNWIRQPPGKGLEWIGEINHNGNTNSNPSLKSRVTLSLDTSKNQFSLKLRSVTAADTAVYYCAFGYSDYEYNWFDPWGQGTLVTVSS VL: EIVLTQSPATLSLSPGERATLSCRASQSISSYLAWYQQKPGQAPRLLIYDASNRATGIPARFSGSGSGTDFTLTISSLEPEDFAVYYCQQRSNWPLTFGQGTNLEIK
18.6%	–	–	–	–	BMS-986016 (antibody, V domains shown) VH: QVQLQQWGAGLLKPSETLSLTCAVYGGSFSDYYWNWIRQPPGKGLEWIGEINHRGSTNSNPSLKSRVTLSLDTSKNQFSLKLRSVTAADTAVYYCAFGYSDYEYNWFDPWGQGTLVTVSS VL: EIVLTQSPATLSLSPGERATLSCRASQSISSYLAWYQQKPGQAPRLLIYDASNRATGIPARFSGSGSGTDFTLTISSLEPEDFAVYYCQQRSNWPLTFGQGTNLEIK
50.7%	–	22.6 nM	–	1 nM	humanized BAP050 (LAG525) (antibody, V domains shown) VH: QIQLVQSGPELKKPGETVKISCKASGFTLTNYGMNWVRQTPGKGLKWMGWINTDTGEPTYADDFKGRFAFSLETSASTASLQINNLKNADTATYFCARNPPYYYGTNNAEAMDYWGQGTTVTVSS VL: DIQMTQTTSSLSASLGDRVTISCSSSQDISNYLMWYQQKPDGTVKVLIYYTSTLHLGVPSRFSGSGSGTDYSLTISNLELEDIATYYCQQYYNLPWTFGQGTKVEIK
44.2%	–	–	–	–	aLAG3(0403) (antibody, V domains shown, also called anti-Lag3 aLAG3 (0403)) VH: EVQLLESGGGLVQPGGSLRLSCAASGFTFDDYTMHWVRQAPGKGLEWVSLVSWDGGGTYYTNSVKGRFTISRDNSKNTLYLQMNSLRAEDTAVYFCAKAITDTSLYGYDYWGQGILVTVSS VL: not shown
